Measured values reported in the supplement of paper PMC10126150.
± gives the standard deviation of the averaged measurements.

Test system: ATP
Experiment: switch fluorescence ratio, 500 uM ATP over buffer (Cy3 cluster intensity, sum of 5 cycles each) (fold (ratio)); higher = stronger signal-on switching upon ATP binding; sequences stand for … in TCGTCGGCAGCGTCAGATGTGTATAAGAGACAGTTTTTTTTTTTTTTTTTTTTTTTTT…TC
Conditions: aptamer strand: ATP DNA aptamer (quencher-CACCTGGGGGAGTATTGCGGAGGAAGG + anchor), 100 nM annealed; ATP concentration: 500 uM
Outline: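 Cy3-labelled switching-strand clusters on a modified Illumina MiSeq flow-cell were annealed to 100 nM quencher-labelled ATP aptamer and imaged first in selection buffer, then after 15 min with 500 uM ATP at 22 °C. NaOH stripping and re-annealing separated each of five buffer/ATP cycles, and clusters outside 100-1000 RFU were excluded. The fluorescence ratio sums target-cycle Cy3 intensity over buffer-cycle Cy3 intensity per cluster and averages it per switch-domain sequence.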
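Note: ATP exposure 15 min at 22 °C before imaging.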

Sequence	switch fluorescence ratio
AGCTGAAGCC	1.03 ± 0.028
AGCTGAAGTG	0.972 ± 0.018
AGCTGACAGT	0.981 ± 0.0044
AGCTGAGGGA	1.015 ± 0.0066
AGCTGATGGG	1.01 ± 0.014
AGCTGCTACG	0.996 ± 0.027
AGCTGGATGC	1.04 ± 0.036
AGCTGGCAGC	1.009 ± 0.0012
AGCTGGCTAA	0.967 ± 0.014
AGCTGTAGTT	1 ± 0.034
AGCTTACTGT	1.08 ± 0.019
AGCTTATGTC	0.935 ± 0.057
AGCTTCGGAC	1.35 ± 0.12
AGCTTCGTTC	1.014 ± 0.0052
AGCTTTAGTT	1.008 ± 0.0019
AGCTTTGGGT	1.01 ± 0.016
AGGAAAAAAA	2.85 ± 2.6
AGGAACATTA	1.01 ± 0.054
AGGAAGAGGC	1.08 ± 0.18
AGGAAGCAGT	1.018 ± 0.0085
AGGAAGCTCT	1.03 ± 0.023
AGGAAGGCA	0.975 ± 0.05
AGGAATAAA	0.976 ± 0.052
AGGAATATAC	1.11 ± 0.066
AGGAATCCGT	1.03 ± 0.022

Sequence	switch fluorescence ratio
AGGAATGGCT	0.985 ± 0.017
AGGAATGTTA	1.03 ± 0.018
AGGAATTGGA	1.01 ± 0.1
AGGAATTTTT	0.968 ± 0.018
AGGACAGCAT	1.07 ± 0.023
AGGACGGCCA	0.998 ± 0.021
AGGACGGGGG	1.02 ± 0.033
AGGACTTGAA	1.02 ± 0.035
AGGAGAAAAT	1.04 ± 0.028
AGGAGACGAA	0.985 ± 0.031
AGGAGAGGTG	1.102 ± 0.002
AGGAGATGGG	1.02 ± 0.034
AGGAGGAAGG	1.05 ± 0.086
AGGAGGACGT	0.964 ± 0.06
AGGAGGGCGT	0.969 ± 0.018
AGGAGGGTAG	1 ± 0.021
AGGAGGGTGG	1.02 ± 0.044
AGGAGGTATG	0.976 ± 0.027
AGGAGGTGGT	1.04 ± 0.015
AGGAGGTTCC	1.02 ± 0.061
AGGAGTATGA	1.03 ± 0.029
AGGAGTCTAT	0.9774 ± 0.0094
AGGAGTGCCA	1.017 ± 0.0093
AGGAGTGTCA	0.965 ± 0.013
AGGAGTGTGG	1.01 ± 0.031
